Results on one substance are retold here after patent US20200352996A1.

The test deals with Tissue factor (TF) on human TNBC line MDA-MB-231 cells (human) (UniProt P13726). In words: cell-based or functional assay.
Chain of UniProt P13726 (P13726 33-295): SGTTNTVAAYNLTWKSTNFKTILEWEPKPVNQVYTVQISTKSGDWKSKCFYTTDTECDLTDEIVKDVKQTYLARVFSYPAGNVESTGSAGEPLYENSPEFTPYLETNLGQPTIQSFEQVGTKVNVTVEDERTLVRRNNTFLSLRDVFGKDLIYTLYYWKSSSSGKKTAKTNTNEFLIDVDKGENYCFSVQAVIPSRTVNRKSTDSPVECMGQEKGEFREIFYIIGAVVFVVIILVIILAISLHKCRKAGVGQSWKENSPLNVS

On to “TF-targeting CAR1 monomer (hfVIIL-CD28-4-1BB-CD3zeta), expressed on NK92MI/fCD16 cells (from UniProt P10747 153-220; Q07011 214-255; P20963 52-164)”, for which the cytotoxicity to TNBC cells (CytoTox Homogenous Assay, E:T ratio of 10:1) worked out at 77%.
